According to PMC8867601, “The TERB1 MYB domain suppresses telomere erosion in meiotic prophase I”:

Experiments:
Conditions in all cases: protein: recombinant; tags: none after Ulp1 cleavage of His-Smt3; label: 32P (T4 PNK)
hTERB1-MYB H713D = target: T1, hTERB1-MYB H713D (Homo sapiens, UniProt Q8NA31 666-719, H713D); assay: EMSA; 150 nM probe; 50 mM Tris-HCl pH 8.0, 6.5% glycerol, 20 mM NaCl, 5 mM DTT, 150 nM probe, 10 ul, 30 min on ice; 4-20% TBE native gel
T1 sequence: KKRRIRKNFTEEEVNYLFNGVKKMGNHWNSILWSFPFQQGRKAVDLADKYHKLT

hTERB1-MYB H716R = target: T2, hTERB1-MYB H716R (Homo sapiens, UniProt Q8NA31 666-719, H716R); assay: as above
T2 sequence: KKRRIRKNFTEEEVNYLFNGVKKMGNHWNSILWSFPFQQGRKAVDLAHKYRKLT

hTERB1-MYB A712K = target: T3, hTERB1-MYB A712K (Homo sapiens, UniProt Q8NA31 666-719, A712K); assay: as above
T3 sequence: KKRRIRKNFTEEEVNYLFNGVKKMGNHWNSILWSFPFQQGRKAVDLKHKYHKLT

hTERB1-MYB triple mutant = target: T4, hTERB1-MYB triple mutant (Homo sapiens, UniProt Q8NA31 666-719, A712K;H713D;H716R); assay: EMSA; 2-8 uM protein, 150 nM probe; 50 mM Tris-HCl pH 8.0, 6.5% glycerol, 20 mM NaCl, 5 mM DTT, 150 nM probe, 10 ul, 30 min on ice; 4-20% TBE native gel
T4 sequence: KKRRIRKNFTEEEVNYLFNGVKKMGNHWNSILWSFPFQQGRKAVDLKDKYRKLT

Measured: binding result

B1: dsDNA_telo_8-mer (TTAGGG)8 (dsDNA)
DNA 1: TTAGGGTTAGGGTTAGGGTTAGGGTTAGGGTTAGGGTTAGGGTTAGGG
DNA 2: CCCTAACCCTAACCCTAACCCTAACCCTAACCCTAACCCTAACCCTAA
no binding: all assays above
